Common to all, as to assay: IEDB peptide-MHC binding, purified MHC/competitive/radioactivity; ≥ and ≤ were set here for values at or beyond the usual limits of such assays
Assay [1] concerns the target HLA-A*02:01.
Assay [2] addresses HLA-A*02:03.
Assay [3] deals with HLA-A*02:06.
Assay [4] deals with HLA-A*02:02.
Assay [5] has as its target HLA-A*68:02.
The mark [6] stands for this setting: source organism: Vaccinia virus WR.
Setting [7] is: source organism: Mammarenavirus lassaense.
[8] abbreviates: source organism: Influenza A virus.
Setting [9] is: source organism: Mammarenavirus choriomeningitidis.

One may read the IC50 as the concentration that inhibits the measured activity by half.

Turning to FVDTMSIYIA, the IC50 in assay [1] (setting [6]) was 1630 nM; in assay [2] (setting [6]) it was 2390 nM; in assay [3] (setting [6]), 1100 nM; in assay [4] (setting [6]) it was 154 nM; in assay [5] (setting [6]), 229 nM.

In the case of NTDHPLSINV, the IC50 in assay [1] (setting [6]) came to 307 nM; in assay [2] (setting [6]), 583 nM; in assay [3] (setting [6]), 1.6 nM; in assay [4] (setting [6]) it was 388 nM; in assay [5] (setting [6]), 0.67 nM.

For TTIGTIAGGV, the IC50 is 978 nM in assay [1] (setting [6]); 43 nM in assay [2] (setting [6]); 84 nM in assay [3] (setting [6]); 741 nM in assay [4] (setting [6]); 0.2 nM in assay [5] (setting [6]).

With NLILNFLDWI, the half-inhibitory concentration (IC50) in assay [1] (setting [6]) worked out at 4390 nM; in assay [2] (setting [6]), 283 nM; in assay [3] (setting [6]) it was 443 nM; in assay [4] (setting [6]), 1690 nM; in assay [5] (setting [6]), 3710 nM.

As for ETIQKDINIT, the IC50 was 1270 nM in assay [1] (setting [6]); 10 nM in assay [2] (setting [6]); 112 nM in assay [3] (setting [6]); 354 nM in assay [4] (setting [6]); 69 nM in assay [5] (setting [6]).

Take FSTSFYLISI: the IC50 in assay [1] (setting [7]) came to 32 nM; in assay [2] (setting [7]) it was 53 nM; in assay [3] (setting [7]), 9.2 nM; in assay [4] (setting [7]) it was 2.1 nM; in assay [5] (setting [7]), 1.8 nM.

Consider AIAACAMLLV, for which the half-inhibitory concentration (IC50) worked out at 36 nM in assay [1] (source organism: SARS-CoV1); 32 nM in assay [2] (source organism: SARS-CoV1); 78 nM in assay [3] (source organism: SARS-CoV1); 5.9 nM in assay [4] (source organism: SARS-CoV1); 1430 nM in assay [5] (source organism: SARS-CoV1).

ILLILSCIFA: the IC50 stood at 21 nM in assay [1] (setting [6]); 307 nM in assay [2] (setting [6]); 492 nM in assay [3] (setting [6]); 448 nM in assay [4] (setting [6]); 2750 nM in assay [5] (setting [6]).

In the case of YLSSVLLAL, the 50% inhibitory concentration (IC50) in assay [1] (source organism: SARS-CoV1) is 0.55 nM; in assay [2] (source organism: SARS-CoV1), 0.31 nM; in assay [3] (source organism: SARS-CoV1), 8.2 nM; in assay [4] (source organism: SARS-CoV1), 0.14 nM; in assay [5] (source organism: SARS-CoV1) it was 10 nM.

Regarding KIYTLIYRQL, the 50% inhibitory concentration (IC50) in assay [1] (setting [6]) was 4020 nM; in assay [2] (setting [6]), 1030 nM; in assay [3] (setting [6]) it was 912 nM; in assay [4] (setting [6]), 707 nM; in assay [5] (setting [6]), 4670 nM.

For the sequence YVIPDELIDV, the IC50 is 23 nM in assay [1] (setting [6]); 14 nM in assay [2] (setting [6]); 12 nM in assay [3] (setting [6]); 18 nM in assay [4] (setting [6]); 350 nM in assay [5] (setting [6]).

For AAVIIMAINV, the IC50 in assay [1] (setting [6]) was 1450 nM; in assay [2] (setting [6]), 607 nM; in assay [3] (setting [6]) it was 446 nM; in assay [4] (setting [6]), 1290 nM; in assay [5] (setting [6]), 95 nM.

For the sequence ILISLINSLV, the concentration for half-maximal inhibition (IC50) turned out to be 83 nM in assay [1] (setting [6]); 3.1 nM in assay [2] (setting [6]); 151 nM in assay [3] (setting [6]); 23 nM in assay [4] (setting [6]); 141 nM in assay [5] (setting [6]).

Regarding DTMSIYIAVA, the IC50 is 83 nM in assay [1] (setting [6]); 24 nM in assay [2] (setting [6]); 1480 nM in assay [3] (setting [6]); 19 nM in assay [4] (setting [6]); 17 nM in assay [5] (setting [6]).

LAFVVFLLV: the IC50 stood at 610 nM in assay [1] (source organism: SARS-CoV1); 1270 nM in assay [2] (source organism: SARS-CoV1); 253 nM in assay [3] (source organism: SARS-CoV1); 458 nM in assay [4] (source organism: SARS-CoV1); 1000 nM in assay [5] (source organism: SARS-CoV1).

Turning to ITTLLNETA, the 50% inhibitory concentration (IC50) in assay [1] (setting [6]) was found to be 635 nM; in assay [2] (setting [6]), 936 nM; in assay [3] (setting [6]), 596 nM; in assay [4] (setting [6]), 414 nM; in assay [5] (setting [6]), 70 nM.

With LVASSGTLEFI, the IC50 in assay [1] (setting [8]) came to 3730 nM; in assay [2] (setting [8]), 697 nM; in assay [3] (setting [8]) it was 305 nM; in assay [4] (setting [8]), 153 nM; in assay [5] (setting [8]) it was 199 nM.

As for AVIPFDDIV, the IC50 stood at 915 nM in assay [1] (setting [6]); 241 nM in assay [2] (setting [6]); 42 nM in assay [3] (setting [6]); 313 nM in assay [4] (setting [6]); 903 nM in assay [5] (setting [6]).

Take FTKDGKLDDT: the IC50 came to 980 nM in assay [1] (setting [6]); 187 nM in assay [2] (setting [6]); 898 nM in assay [3] (setting [6]); 145 nM in assay [4] (setting [6]); 4080 nM in assay [5] (setting [6]).

For FISSFLLPLT, the IC50 is 62 nM in assay [1] (setting [6]); 44 nM in assay [2] (setting [6]); 51 nM in assay [3] (setting [6]); 39 nM in assay [4] (setting [6]); 982 nM in assay [5] (setting [6]).

On to FSTSAYLISI, for which the IC50 in assay [1] (setting [9]) is 9 nM; in assay [2] (setting [9]), 14 nM; in assay [3] (setting [9]), 3.5 nM; in assay [4] (setting [9]), 0.68 nM; in assay [5] (setting [9]), 1.4 nM.

As for FLCLFLLPSL, the IC50 was 0.33 nM in assay [1] (source organism: SARS-CoV1); 2.9 nM in assay [2] (source organism: SARS-CoV1); 0.37 nM in assay [3] (source organism: SARS-CoV1); 0.53 nM in assay [4] (source organism: SARS-CoV1); 729 nM in assay [5] (source organism: SARS-CoV1).

Regarding GIFVDTMSI, the IC50 in assay [1] (setting [6]) worked out at 3020 nM; in assay [2] (setting [6]), 936 nM; in assay [3] (setting [6]), 1620 nM; in assay [4] (setting [6]) it was 2880 nM; in assay [5] (setting [6]) it was 3980 nM.

For the origin of these results see the Immune Epitope Database (IEDB).
